Assay results published in patent publication US20230383269A1 (DSM AUSTRIA, published 2023).
Positions count from the first letter of the chain named. Names and notes keep the numbering of the source.

B1: alpha/beta hydrolase variant of SEQ ID NO: 24 (F69Y, N167T, F168Y, S174C, D179E, A182C, A183R, K186R, A187R, F218Y) (enzyme)
chain: MTDQSPETRDIFVPHAFEEQQVDLGEVVMNYVEAGSADHPALLLLPEQTGSWWSYEPVIGLLAESFHVYAVDIRGQGRSTWTPKRYSLDNFGNDLVRFISLVVKRPVIVSGNSSGGVLAAWLSAYAMPGQIRAALCEDTPFFASELVPAHGHSVRQAAGPAFELYRTYLGDQWCVADWEGFCRAARRSPSKIMSLFPSSDEPPQNLKEYDPEWARAFYEGTVALHCPHDLMLSQVKTPILITHHARAVDPHSGDLLGALSDFQAERAQAIIESAGVPVEYASFPDALHMMHQFEPERFAEVLTSWVARLPADTPGAHHHHHH
notes: homo-tetramer; also called zearalenone-cleaving polypeptide
B2: alpha/beta hydrolase variant of SEQ ID NO: 33 (N167T, F168Y, S174C, D179E, A182C, A183R, K186R, A187R, F218Y, S293S) (enzyme)
chain: B1 chain with Y69F, F293S
notes: as for B1
B3: alpha/beta hydrolase variant of SEQ ID NO: 31 (N167T, F168Y, S174C, D179E, A182C, A183R, K186R, A187R, F218Y, A281E) (enzyme)
chain: B1 chain with Y69F, A281E
notes: as for B1
B4: alpha/beta hydrolase variant of SEQ ID NO: 7 (N167L) (enzyme)
chain: B1 chain with Y69F, T167L, Y168F, C174S, E179D, C182A, R183A, R186K, R187A, Y218F
notes: as for B1
B5: alpha/beta hydrolase variant of SEQ ID NO: 9 (N167T, S174C) (enzyme)
chain: B1 chain with Y69F, Y168F, E179D, C182A, R183A, R186K, R187A, Y218F
notes: as for B1
B6: alpha/beta hydrolase variant of SEQ ID NO: 4 (N167S) (enzyme)
chain: B1 chain with Y69F, T167S, Y168F, C174S, E179D, C182A, R183A, R186K, R187A, Y218F
notes: as for B1
B7: alpha/beta hydrolase variant of SEQ ID NO: 5 (N167A) (enzyme)
chain: B1 chain with Y69F, T167A, Y168F, C174S, E179D, C182A, R183A, R186K, R187A, Y218F
notes: as for B1
B8: alpha/beta hydrolase variant of SEQ ID NO: 25 (A126S, N167T, F168Y, S174C, D179E, A182C, A183R, K186R, A187R, F218Y) (enzyme)
chain: B1 chain with Y69F, A126S
notes: as for B1
B9: alpha/beta hydrolase variant of SEQ ID NO: 30 (N167T, F168Y, S174C, D179E, A182C, A183R, K186R, A187R, F218Y, H251E) (enzyme)
chain: B1 chain with Y69F, H251E
notes: as for B1
B10: alpha/beta hydrolase variant of SEQ ID NO: 6 (N167C) (enzyme)
chain: B1 chain with Y69F, T167C, Y168F, C174S, E179D, C182A, R183A, R186K, R187A, Y218F
notes: as for B1
B11: alpha/beta hydrolase variant of SEQ ID NO: 27 (N167T, F168Y, S174C, D179E, A182C, A183R, K186R, A187R, F218Y, H225S) (enzyme)
chain: B1 chain with Y69F, H225S
notes: as for B1
B12: alpha/beta hydrolase variant of SEQ ID NO: 32 (N167T, F168Y, S174C, D179E, A182C, A183R, K186R, A187R, F218Y, L287T, M289S) (enzyme)
chain: B1 chain with Y69F, L287T, M289S
notes: as for B1
B13: alpha/beta hydrolase variant of SEQ ID NO: 26 (T139P N167T, F168Y, S174C, D179E, A182C, A183R, K186R, A187R, F218Y) (enzyme)
chain: B1 chain with Y69F, T139P
notes: as for B1
B14: alpha/beta hydrolase variant of SEQ ID NO: 8 (N167T, S174T) (enzyme)
chain: B1 chain with Y69F, Y168F, C174T, E179D, C182A, R183A, R186K, R187A, Y218F
notes: as for B1
B15: alpha/beta hydrolase variant of SEQ ID NO: 34 (N167T, F168Y, S174C, D179E, A182C, A183R, K186R, A187R, F218Y, S304R) (enzyme)
chain: B1 chain with Y69F, S304R
notes: as for B1
B16: alpha/beta hydrolase variant of SEQ ID NO: 3 (N167T) (enzyme)
chain: B1 chain with Y69F, Y168F, C174S, E179D, C182A, R183A, R186K, R187A, Y218F
notes: as for B1
B17: alpha/beta hydrolase variant of SEQ ID NO: 28 (N167T, F168Y, S174C, D179E, A182C, A183R, K186R, A187R, F218Y L230R) (enzyme)
chain: B1 chain with Y69F, L230R
notes: as for B1
B18: alpha/beta hydrolase variant of SEQ ID NO: 29 (N167T, F168Y, S174C, D179E, A182C, A183R, K186R, A187R, F218Y, A245V) (enzyme)
chain: B1 chain with Y69F, A245V
notes: as for B1

Target: the molecule itself
Assay: Blue-Native-PAGE, oligomeric conformation (self-association of identical chains)
Text: Comparison of the native molecular weight (oligomeric conformation) between single purified zearalenone-cleaving polypeptides was done via Blue-Native-PAGE. Dilutions of the elutes were supplied with not denaturating loading dye (e.g. 2× loading dye: 0.126 M tris(hydroxymethyl)aminomethan/hydrochloric acid pH 6.8, 20.0% glycerol, 4.0% Coomassie Blue G-250) and separated on a 4-15% polyacrylamid gel under native conditions (e.g. Mini-PROTEAN® Tetra Cell System, 1658004EDU+4-15% Mini-PROTEAN® TGX™ Precast Protein Gels, 4561083EDU, Bio-Rad Laboratories GmbH) (5× Anode Buffer: 0.125 M Tris(hydroxymethyl)aminomethane, 0.960 M Glycine, 1× Kathode Buffer: Anode Buffer+0.02% Coomassie Blue G250; 200 V, 40 minutes). The peptide bands were visualized by Coomassie staining. The oligomeric state of selected zearalenone-cleaving polypeptides was determined by size exclusion chromatography, SEC-MALS or X-Ray crystallography. Homo-dimers (e.g. SEQ ID NO. 1) migrated faster across the BN-PAGE gel matrix, while homo-tetramers (e.g. SEQ ID NO. 2-35) were retained in the gel matrix to a higher extent. The oligomeric conformation of the zearalenone-cleaving polypeptides was determined relatively to the migration of homo-dimeric and homo-tetrameric peptides.

Binding result, binds:
B1, B2, B3, B4, B5, B6, B7, B8, B9, B10, B11, B12, B13, B14, B15, B16, B17, B18
